Laboratory results reported in US20260008815A1, “CYCLIC PEPTIDE OR SALT THEREOF, AND USES THEREOF” (FUJIFILM Corporation, priority 2023, published 2026).
Bridge positions count the residues as written; N and C are the ends. Ends that are not written are not given here. COCH2 = acetyl group that carries the bridge

Target: T1, Recombinant Human FGFR2 alpha (IIIc) Fc Chimera Protein, CF (R&D systems, 712-FR-050) (human, UniProt P21802 22-377)
T1 construct: bought; not shown: Fc part of the chimera
Test: ELISA on plate-bound FGFR2-Fc
Method: First, 5 ng of Recombinant Human FGFR2 alpha (IIIc) Fc Chimera Protein (R&D systems, 712-FR-050) was immobilized in each well of a 96-well plate, and blocked with Pierce Protein-Free (PBS) Blocking Buffer (Thermo, 37572), and a peptide diluted with Can Get Signal Immunoreaction Enhancer Solution I (TOYOBO, NKB-101) was then added and reacted at room temperature for 3 hours. After washing with 0.05% Tween 20-containing phosphate buffered saline (PBS), an anti-Myc antibody (Cell Signaling, 14038S) diluted with Can Get Signal Immunoreaction Enhancer Solution II (TOYOBO, NKB-101) was added and reacted at room temperature for 2 hours. After washing with 0.05% Tween 20-containing PBS, SuperSignal ELISA Femto Substrate (Thermo, 37075) was added, and the luminescence amount was measured. The dose-response relationship was calculated from using the difference between the luminescence amount in the well in which FGFR was immobilized and the luminescence amount in the well in which FGFR was not immobilized, and the concentration of the peptide at the time of reaction, and the binding affinity to FGFR was evaluated according to the following evaluation criteria. The evaluation result preferably satisfies the evaluation criteria A, B, or C.

T1 sequence (P21802 22-377, change not shown): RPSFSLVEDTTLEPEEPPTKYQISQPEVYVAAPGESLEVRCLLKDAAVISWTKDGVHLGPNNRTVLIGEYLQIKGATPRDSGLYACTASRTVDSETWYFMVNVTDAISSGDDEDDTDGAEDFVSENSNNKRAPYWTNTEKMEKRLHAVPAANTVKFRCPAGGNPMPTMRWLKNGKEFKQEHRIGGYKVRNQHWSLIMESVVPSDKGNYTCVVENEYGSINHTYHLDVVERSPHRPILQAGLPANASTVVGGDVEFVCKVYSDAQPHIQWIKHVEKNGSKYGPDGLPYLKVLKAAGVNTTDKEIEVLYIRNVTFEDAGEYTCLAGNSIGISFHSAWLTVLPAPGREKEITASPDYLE

ELISA luminescence signal at 10 nmol/L peptide, relative to SEQ ID NO: 47 (=1) | Binder
≥ 0.7 ratio | YCEENYLDPEQYQYFIYFK(COCH2)Y (thioether 2-19) [cyclic peptide SEQ ID NO: 131]
≥ 0.7 ratio | ECEENYLDPEQYQYFIYFK(COCH2)Y (thioether 2-19) [cyclic peptide SEQ ID NO: 148]
≥ 0.7 ratio | SCEENYLDPEQYQYFIYFK(COCH2)Y (thioether 2-19) [cyclic peptide SEQ ID NO: 145]
≥ 0.7 ratio | YCRENYLDPEQYQYFIYFK(COCH2)Y (thioether 2-19) [cyclic peptide SEQ ID NO: 164]
≥ 0.7 ratio | TCEENYLDPEQYQYFIYFK(COCH2)Y (thioether 2-19) [cyclic peptide SEQ ID NO: 146]
≥ 0.7 ratio | QCEENYLDPEQYQYFIYFK(COCH2)Y (thioether 2-19) [cyclic peptide SEQ ID NO: 144]
≥ 0.7 ratio | GCEENYLDPEQYQYFIYFK(COCH2)Y (thioether 2-19) [cyclic peptide SEQ ID NO: 136]
≥ 0.7 ratio | FCEENYLDPEQYQYFIYFK(COCH2)Y (thioether 2-19) [cyclic peptide SEQ ID NO: 141]
≥ 0.7 ratio | YCLENYLDPEQYQYFIYFK(COCH2)Y (thioether 2-19) [cyclic peptide SEQ ID NO: 153]
≥ 0.7 ratio | YCFENYLDPEQYQYFIYFK(COCH2)Y (thioether 2-19) [cyclic peptide SEQ ID NO: 156]
≥ 0.7 ratio | HCEENYLDPEQYQYFIYFK(COCH2)Y (thioether 2-19) [cyclic peptide SEQ ID NO: 150]
≥ 0.7 ratio | YCTENYLDPEQYQYFIYFK(COCH2)Y (thioether 2-19) [cyclic peptide SEQ ID NO: 162]
≥ 0.7 ratio | YCDENYLDPEQYQYFIYFK(COCH2)Y (thioether 2-19) [cyclic peptide SEQ ID NO: 163]
≥ 0.7 ratio | YCPENYLDPEQYQYFIYFK(COCH2)Y (thioether 2-19) [cyclic peptide SEQ ID NO: 152]
≥ 0.7 ratio | LCEENYLDPEQYQYFIYFK(COCH2)Y (thioether 2-19) [cyclic peptide SEQ ID NO: 138]
≥ 0.7 ratio | DCEENYLDPEQYQYFIYFK(COCH2)Y (thioether 2-19) [cyclic peptide SEQ ID NO: 147]
≥ 0.7 ratio | YCNENYLDPEQYQYFIYFK(COCH2)Y (thioether 2-19) [cyclic peptide SEQ ID NO: 159]
≥ 0.7 ratio | YCHENYLDPEQYQYFIYFK(COCH2)Y (thioether 2-19) [cyclic peptide SEQ ID NO: 165]

ELISA luminescence signal at 10 nmol/L peptide, relative to SEQ ID NO: 47 (=1) | Binder
≥ 0.7 ratio | RCEENYLDPEQYQYFIYFK(COCH2)Y (thioether 2-19) [cyclic peptide SEQ ID NO: 149]
≥ 0.7 ratio | YCIENYLDPEQYQYFIYFK(COCH2)Y (thioether 2-19) [cyclic peptide SEQ ID NO: 154]
≥ 0.7 ratio | NCEENYLDPEQYQYFIYFK(COCH2)Y (thioether 2-19) [cyclic peptide SEQ ID NO: 143]
≥ 0.7 ratio | YCQENYLDPEQYQYFIYFK(COCH2)Y (thioether 2-19) [cyclic peptide SEQ ID NO: 160]
≥ 0.7 ratio | ICEENYLDPEQYQYFIYFK(COCH2)Y (thioether 2-19) [cyclic peptide SEQ ID NO: 139]
≥ 0.7 ratio | PCEENYLDPEQYQYFIYFK(COCH2)Y (thioether 2-19) [cyclic peptide SEQ ID NO: 137]
≥ 0.7 ratio | VCEENYLDPEQYQYFIYFK(COCH2)Y (thioether 2-19) [cyclic peptide SEQ ID NO: 140]
≥ 0.7 ratio | YCVENYLDPEQYQYFIYFK(COCH2)Y (thioether 2-19) [cyclic peptide SEQ ID NO: 155]
≥ 0.7 ratio | YCSENYLDPEQYQYFIYFK(COCH2)Y (thioether 2-19) [cyclic peptide SEQ ID NO: 161]
≥ 0.7 ratio | WCEENYLDPEQYQYFIYFK(COCH2)Y (thioether 2-19) [cyclic peptide SEQ ID NO: 142]
≥ 0.7 ratio | YCGENYLDPEQYQYFIYFK(COCH2)Y (thioether 2-19) [cyclic peptide SEQ ID NO: 151]
≥ 0.7 ratio | YCWENYLDPEQYQYFIYFK(COCH2)Y (thioether 2-19) [cyclic peptide SEQ ID NO: 158]
≥ 0.7 ratio | YCYENYLDPEQYQYFIYFK(COCH2)Y (thioether 2-19) [cyclic peptide SEQ ID NO: 157]
0.1 to 0.5 ratio | LCADQYDYLLQYVFWRTYK(COCH2)I (thioether 2-19) [cyclic peptide SEQ ID NO: 134]
0.1 to 0.5 ratio | QCTYLAQYLVERYHLTK(COCH2)T (thioether 2-17) [cyclic peptide SEQ ID NO: 135]
≥ 0.7 ratio | ECLGNYFSHEQYQYLLQYK(COCH2)I (thioether 2-19) [cyclic peptide SEQ ID NO: 133]
0.5 to 0.7 ratio | HCNANFVYQQQYLYLLQYK(COCH2)L (thioether 2-19 (inferred)) [cyclic peptide SEQ ID NO: 43]
